{"source": "paper PMC12732313", "about": "“Phylogenetic and biochemical analysis of the evolution and interdomain modularity of bifunctional L-fucokinase/GDP-fucose pyrophosphorylases” (The Journal of Biological Chemistry, 2025)", "molecules": {"B1": {"name": "TxFKP (Thermophagus xiamenensis) (protein)", "chain": "MKLLLSLPENLANSFNHIGPSVNYSVFVSSDPPKGKIGSGGGTAWLLSQHFATESISDFDQYLKADKKIIIHAGGQSRRLPAYAPLGKIFTPIPVFRWSRGQKLNQTLLDLQLPLYEYLMAISSPEINTMIASGDILLQYNKLPAELPKADVICLGMWVDPHLAARHGVFFTPRNDPSKLDFMLQKPSHQKIEELNASHLFLMDVGIWLLSDNAVRTLMQKCQWKDDNFLNNTPPFYDLYSTFGTALGSTPTVVDEAIGKLSVAIIPIEKGEFHHFGTSNELITSTEKIQNSVKDRRNIWHNRVKPHPSLFVQNAQTHIRWEATHHHIWIENSNIPDSWTLSNHHVITGIPENNWKISLNPGWCLDIIPIEENKYCIRPYHIDDKFSGKCNDQNTFWLGIPLNEWLRNHQITFNEAAIDPKEDIQEASLFPVVTLSELTEELLIWMFSENPPHNSELKSKWLSSTRLSGSKIPQKANIARLIQQRETIRKENLLALEKNYKHSVFYQADLAFIAQEYAKNNLTIPDPLPKEESFIFRFQNYMLRSEIKRLQEKDGANDESLAFSLLQQFIINTVEKKEIPRLNVFPDQIVWGRSPARLDLAGGWSDTPPYCIQAGGRVLNLAVNLNGQPPLQVFIRLSNEPQIILRSIDIGATETIATYDDLNFKNSVGSAFAIPKAALCLAGFHPSFSDIKYKSLKEQLVDFGGGIEISFLAAIPKGSGLGTSSILAATILGTLADFCNLSWDRQAIAHRTLVLEQLLTTGGGWQDQYGGIFPGIKLLDSSPGNQNQINIRWIPDLLFTNPPFRQNWLLYYTGLTRVAKNILGEIVRGMFLNQGTRLRIIDTIKNHALETYDALQQCNYEKSARMILRSWELNKALDLGTTNPEINAIIDKIKDLAFGYKLLGAGGGGYLLIAAKDEGAAARIKERLTKYPPNSKARFVDMSLNNQGLEISRS", "notes": "codon-optimized gene in pET-28a, E. coli BL21(DE3) with GroEL/GroES/Trigger Factor; Ni-IMAC; GroEL (~60 kDa) contaminant remains"}}, "key": {"[1]": {"test_system": "C[C@@H]1O[C@H](OP(=O)(O)O)[C@@H](O)[C@H](O)[C@@H]1O", "experiment": "purified protein", "details": "pyrophosphorylase activity, 400 μM GTP, 10 mM MgCl2, pH 7.5, 37 °C"}, "[2]": {"test_system": "Nc1nc2c(ncn2[C@@H]2O[C@H](COP(=O)(O)OP(=O)(O)OP(=O)(O)O)[C@@H](O)[C@H]2O)c(=O)[nH]1", "experiment": "purified protein", "details": "pyrophosphorylase activity, 250 μM Fuc-1-P, 10 mM MgCl2, pH 7.5, 37 °C"}, "TxFKP": {"target": "T1, TxFKP (Thermophagus xiamenensis, UniProt A0A1I2DJ10)", "T1 construct": "gene SAMN05444380_11920; codon-optimized gene in pET-28a, E. coli BL21(DE3) with GroEL/GroES/Trigger Factor; Ni-IMAC; GroEL (~60 kDa) contaminant remains", "T1 sequence (A0A1I2DJ10 1-954)": "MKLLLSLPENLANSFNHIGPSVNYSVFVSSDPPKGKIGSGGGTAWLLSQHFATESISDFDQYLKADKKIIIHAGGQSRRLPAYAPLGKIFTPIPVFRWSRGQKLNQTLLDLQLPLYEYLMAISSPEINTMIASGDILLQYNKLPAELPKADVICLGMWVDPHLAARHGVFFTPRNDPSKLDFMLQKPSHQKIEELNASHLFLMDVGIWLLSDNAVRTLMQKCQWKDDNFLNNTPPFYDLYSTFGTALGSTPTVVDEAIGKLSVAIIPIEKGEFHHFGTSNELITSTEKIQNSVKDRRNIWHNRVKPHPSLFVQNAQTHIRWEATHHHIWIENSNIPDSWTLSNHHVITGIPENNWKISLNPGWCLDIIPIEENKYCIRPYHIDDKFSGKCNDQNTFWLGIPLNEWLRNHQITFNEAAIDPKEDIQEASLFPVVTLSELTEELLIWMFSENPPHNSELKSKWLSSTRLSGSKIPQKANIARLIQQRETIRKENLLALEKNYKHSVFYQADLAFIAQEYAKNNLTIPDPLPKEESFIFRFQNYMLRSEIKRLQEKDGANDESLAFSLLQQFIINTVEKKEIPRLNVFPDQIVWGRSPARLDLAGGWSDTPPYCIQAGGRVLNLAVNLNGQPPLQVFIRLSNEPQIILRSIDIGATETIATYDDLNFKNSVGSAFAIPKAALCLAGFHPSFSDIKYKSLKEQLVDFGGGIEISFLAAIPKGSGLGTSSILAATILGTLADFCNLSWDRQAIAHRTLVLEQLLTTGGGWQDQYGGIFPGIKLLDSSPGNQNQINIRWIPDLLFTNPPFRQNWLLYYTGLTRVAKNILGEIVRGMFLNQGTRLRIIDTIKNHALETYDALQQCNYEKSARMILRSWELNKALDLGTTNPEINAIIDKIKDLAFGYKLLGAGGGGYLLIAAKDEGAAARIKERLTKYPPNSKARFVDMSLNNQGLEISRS", "experiment": "thermal shift, SYPRO orange", "type": "binding", "details": "2 mM L-fucose, pH 7.0; Tm2 assigned to FUK domain", "description": "thermal shift, SYPRO orange on TxFKP"}, "BfFKP": {"target": "T2, BfFKP (Bacteroides fragilis, UniProt Q58T34)", "T2 construct": "gene fkp; codon-optimized gene in pET vector, E. coli BL21(DE3) with GroEL/GroES/Trigger Factor; Ni-IMAC; no solubility tag", "T2 sequence (Q58T34 whole entry)": "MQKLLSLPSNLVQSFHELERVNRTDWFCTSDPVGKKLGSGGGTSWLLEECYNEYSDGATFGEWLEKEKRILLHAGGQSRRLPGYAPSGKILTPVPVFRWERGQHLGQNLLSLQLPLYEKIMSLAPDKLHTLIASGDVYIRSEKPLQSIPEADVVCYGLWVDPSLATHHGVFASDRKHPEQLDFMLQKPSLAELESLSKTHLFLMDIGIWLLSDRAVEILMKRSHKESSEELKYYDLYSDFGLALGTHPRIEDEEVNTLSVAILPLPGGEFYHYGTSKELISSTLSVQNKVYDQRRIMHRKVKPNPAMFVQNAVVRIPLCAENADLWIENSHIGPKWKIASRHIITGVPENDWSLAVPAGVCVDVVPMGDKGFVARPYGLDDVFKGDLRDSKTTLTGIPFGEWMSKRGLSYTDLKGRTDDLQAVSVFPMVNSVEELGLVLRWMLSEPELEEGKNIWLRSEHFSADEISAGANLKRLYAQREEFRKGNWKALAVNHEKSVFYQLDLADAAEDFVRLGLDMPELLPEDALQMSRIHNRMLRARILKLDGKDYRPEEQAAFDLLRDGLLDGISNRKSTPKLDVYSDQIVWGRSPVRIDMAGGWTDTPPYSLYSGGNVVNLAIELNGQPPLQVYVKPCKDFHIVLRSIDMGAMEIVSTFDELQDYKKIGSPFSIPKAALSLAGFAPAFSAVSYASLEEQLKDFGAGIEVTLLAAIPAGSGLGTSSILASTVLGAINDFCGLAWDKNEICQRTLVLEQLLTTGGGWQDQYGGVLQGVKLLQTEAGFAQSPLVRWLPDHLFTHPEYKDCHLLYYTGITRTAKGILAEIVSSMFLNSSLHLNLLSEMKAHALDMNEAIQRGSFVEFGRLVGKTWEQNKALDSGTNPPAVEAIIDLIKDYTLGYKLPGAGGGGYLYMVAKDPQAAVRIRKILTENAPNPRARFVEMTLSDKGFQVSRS", "experiment": "thermal shift, SYPRO orange", "type": "binding", "details": "2 mM L-fucose, pH 7.0; lower melting transition; domain not assigned", "description": "thermal shift, SYPRO orange on BfFKP"}, "purified protein [3]": {"substrate": "Nc1nc2c(ncn2[C@@H]2O[C@H](COP(=O)(O)OP(=O)(O)OP(=O)(O)O)[C@@H](O)[C@H]2O)c(=O)[nH]1", "experiment": "purified protein", "type": "biochemical, Thermophagus xiamenensis", "details": "pyrophosphorylase activity, 250 μM Fuc-1-P, 10 mM MgCl2, pH 7.5, 37 °C"}, "purified protein [4]": {"substrate": "C[C@@H]1O[C@H](OP(=O)(O)O)[C@@H](O)[C@H](O)[C@@H]1O", "experiment": "purified protein", "type": "biochemical, Thermophagus xiamenensis", "details": "pyrophosphorylase activity, 100 μM GTP, 10 mM MgCl2, pH 7.5, 37 °C"}, "purified protein [5]": {"substrate": "Nc1ncnc2c1ncn2[C@@H]1O[C@H](COP(=O)(O)OP(=O)(O)OP(=O)(O)O)[C@@H](O)[C@H]1O", "experiment": "purified protein", "type": "biochemical, Thermophagus xiamenensis", "details": "kinase activity, 1 mM L-fucose, 10 mM MnCl2, pH 7.5, 37 °C"}}}
{"molecule": "BfFKP (Bacteroides fragilis)", "values": [{"measurement": "Km", "setting": "[1]", "result": "120 ± 60", "unit": "µM"}, {"measurement": "kcat", "setting": "[1]", "result": "9 ± 3", "unit": "s⁻¹"}, {"measurement": "kcat/Km", "setting": "[1]", "result": "70000 ± 50000", "unit": "M⁻¹ s⁻¹"}, {"measurement": "Km", "setting": "[2]", "result": "140 ± 30", "unit": "µM"}, {"measurement": "kcat", "setting": "[2]", "result": "13 ± 3", "unit": "s⁻¹"}, {"measurement": "kcat/Km", "setting": "[2]", "result": "90000 ± 30000", "unit": "M⁻¹ s⁻¹"}]}
{"molecule": "C[C@@H]1OC(O)[C@@H](O)[C@H](O)[C@@H]1O", "note": "(stereo partly drawn) [L-fucose]", "values": [{"measurement": "Δ Tm2 (°C)", "setting": "TxFKP", "result": "1.8 ± 0.2", "unit": "°C"}, {"measurement": "ΔTm1 (°C)", "setting": "BfFKP", "result": "2.0 ± 0.0", "unit": "°C"}]}
{"molecule": "B1", "values": [{"measurement": "Km", "setting": "purified protein [3]", "result": "27 ± 11", "unit": "µM"}, {"measurement": "kcat", "setting": "purified protein [3]", "result": "8 ± 1.1", "unit": "s⁻¹"}, {"measurement": "kcat/Km", "setting": "purified protein [3]", "result": "300000 ± 130000", "unit": "M⁻¹ s⁻¹"}, {"measurement": "Km", "setting": "purified protein [4]", "result": "66 ± 20", "unit": "µM"}, {"measurement": "kcat", "setting": "purified protein [4]", "result": "4.8 ± 0.6", "unit": "s⁻¹"}, {"measurement": "kcat/Km", "setting": "purified protein [4]", "result": "70000 ± 30000", "unit": "M⁻¹ s⁻¹"}, {"measurement": "Km", "setting": "purified protein [5]", "result": "1000 ± 300", "unit": "µM"}, {"measurement": "kcat", "setting": "purified protein [5]", "result": "0.74 ± 0.07", "unit": "s⁻¹"}, {"measurement": "kcat/Km", "setting": "purified protein [5]", "result": "700 ± 300", "unit": "M⁻¹ s⁻¹"}]}
